Data published in article PMC5173322, “Neurodegenerative disease mutations in TREM2 reveal a functional surface and distinct loss-of-function mechanisms” (eLife, 2016).

B1: human TREM2 ectodomain Y38C (domain or fragment, UniProt Q9NZC2 19-134, looked up)
chain: HNTTVFQGVAGQSLQVSCPCDSMKHWGRRKAWCRQLGEKGPCQRVVSTHNLWLLSFLRRWNGSTAITDDTLGGTLTITLRNLQPHDAGLYQCQSLHGSEADTLRKVLVEVLADPLD
notes: TREM2, human, ectodomain, limits as the WT ectodomain (amino acids 19-134), Nasu-Hakola disease mutation Y38C; it was detected by anti-6His Western blot; also called NHD mutant Y38C; source: Freestyle 293F cells, transfected, secreted; harvested for preparative SEC; not shown: His6, C-terminal, kept
B2: human TREM2 ectodomain V126G (domain or fragment, UniProt Q9NZC2 19-134, looked up)
chain: HNTTVFQGVAGQSLQVSCPYDSMKHWGRRKAWCRQLGEKGPCQRVVSTHNLWLLSFLRRWNGSTAITDDTLGGTLTITLRNLQPHDAGLYQCQSLHGSEADTLRKVLGEVLADPLD
notes: TREM2, human, ectodomain, limits as the WT ectodomain (amino acids 19-134), Nasu-Hakola disease mutation V126G; it was detected by anti-6His Western blot; also called NHD mutant V126G; source: Freestyle 293F cells, transfected, secreted; harvested for preparative SEC; not shown: His6, C-terminal, kept
B3: human TREM2 ectodomain T66M (domain or fragment, UniProt Q9NZC2 19-134, looked up)
chain: HNTTVFQGVAGQSLQVSCPYDSMKHWGRRKAWCRQLGEKGPCQRVVSMHNLWLLSFLRRWNGSTAITDDTLGGTLTITLRNLQPHDAGLYQCQSLHGSEADTLRKVLVEVLADPLD
notes: TREM2, human, ectodomain, limits as the WT ectodomain (amino acids 19-134), Nasu-Hakola disease mutation T66M; it was detected by anti-6His Western blot; also called NHD mutant T66M; source: Freestyle 293F cells, transfected, secreted; harvested for preparative SEC; not shown: His6, C-terminal, kept

Biological target: the molecule itself
Test: SEC; preparative SEC of NHD mutant ectodomains harvested from 293F suspension cells; fractions analysed by anti-6His Western blot

Binding result, binds:
B1, B2, B3
